Assay results as given in the nanobody polyreactivity screen of Harvey et al. (2022).

Assay: yeast display, Sf9 membrane polyspecificity reagent, FACS + sequencing; frameworks hold sequencing errors
Procedure, shortened: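 Nanobodies came from a synthetic yeast display library in Saccharomyces cerevisiae BJ5465, induced with galactose for 36–48 hours and stained for 1 hour at 4 °C with 10% biotinylated, detergent-solubilized Sf9 membrane reagent. Cells were enriched on streptavidin microbeads and then FACS-sorted, with low and high (top ~1%) gates set on anti-HA fluorescence for expression and streptavidin fluorescence for reagent binding. Each polyreactivity label reflects the gate a clone came from. Genes were amplified by colony PCR, sequenced by MiSeq 2 × 250 and filtered by CDR length.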

Sequence | polyreactivity (PSR sort gate)
QVQLVESGGGLVQAGGSLRLSCAASGRTFGLYAMRWYRQAPGKERELVAAISIRGGATYYAVSVKGRFTISRDNAKNTVYLQMNSLKPEDSAVYYCNKGPGRWYYWGQVTQVTVSS | low polyreactivity
QVQLVESGGGLVQAGGSLRLSCAASGRTFGLYDMGWYRQAPGKERELVAGITRRGGRTYYADSVKGRFTISRDNAKNTVYLQMNSLKPEDTAVYYCAVVTRYRYDYWGQGTQVTVSS | high polyreactivity
QVQLVESGGGLVQAGGSLRLSCAASGRTFGNNAMGWSRPAPGKERELVAAITASGGRTYYADSVKGRFTISRDNAKTTVYLQMNSLKPEDTAVYYCADGGPRVNGYGGYYWGQGTQVTVSS | high polyreactivity
QVQLVESGGGLVQAGGSLRLSCAASGRTFGNYAMGWYRQAPGKERELVAAITSAGRTYYADSVKGRFTISRDNAKNTVYLQMNSLKPEDTAVYYCNANRVSPYYWGQGTQVTVSS | low polyreactivity
QVQLVESGGGLVQAGGSLRLSCAASGRTFGNYAMGWYRQARGKERELVASISRRGGSTYYADSVKGRFTISRENAKNTVYLQMTSLKPDDTAVFYCATLRGRQRFGYDYWGQGTQVTVSS | high polyreactivity
QVQLVESGGGLVQAGGSLRLSCAASGRTFGPYAMGWYRQAPGKEREFVAAMSYSGGSTYYADSVKGRFTISRDTAKNTVFLQINSLKPEDTAVYYCAVDIDSNSGTRDYWGQGTQVTVSS | low polyreactivity
QVQLVESGGGLVQAGGSLRLSCAASGRTFGQNAMGWYRPAPGKERELVAAISRGGSTYYADSVKGRFTISRDNAKNTVYLQMNSLKPEDTAVYYCAAAKKSGVYLRLNYWGQGTQVTVSS | high polyreactivity
QVQLVESGGGLVQAGGSLRLSCAASGRTFGQNTMGWYRQAPGIERELVAAINWSGGSTYYADSVKGRFTISRDIAKNTVYVQMNSLKPEDTAVYYCAVRGYWGQGTQVTVSS | low polyreactivity
QVQLVESGGGLVQAGGSLRLSCAASGRTFGQNTMGWYRQAPGKERELVATITSDGGDTYYADSVKGRFTISRDNAKNTVYLQMNSLKPEDTAVYYCKADYAGPKYVGYTFRSFTMDYWGQGTQVTVSS | low polyreactivity
QVQLVESGGGLVQAGGSLRLSCAASGRTFGRNAMGWYRQAPGKEREFVAAISYRGGSTYYADSVKGRFTISRDNAKNTVYLQMNSLKPEDTAVYYCAVRFSAPGYYYWGQGTQVTVSS | high polyreactivity
QVQLVESGGGLVQAGGSLRLSCAASGRTFGRNAMGWYRQAPGKERELVAAISSSGTRTYYADSVKGRFTISRDNAKNTVYLQMNSLKPEDTAVYYCAVDTLRYKMDYWGQGTQVTVSS | low polyreactivity
QVQLVESGGGLVQAGGSLRLSCAASGRTFGRNGMGWYRQAPGKERELVAAISIGDSTTYADSVKGRFTISRDNAKNTVYLQMNSLKPEDTAVYYCAAEIERYPVWEYRGKYDYWGQGTQVTVSS | low polyreactivity
QVQLVESGGGLVQAGGSLRLSCAASGRTFGRYAMGWYRKAPGKERELVAAISCSGGSTYYADSVKGRFTISRDNAKNTVYLQMNSLKPEDTAVYYCAADWRQGLWYGYYYWGQGTQVTVSS | low polyreactivity
QVQLVESGGGLVQAGGSLRLSCAASGRTFGRYAMGWYRQAPGKERELVADITGGGSTNYADSVKGRFTISRDNAKNTVYFQMNSLKPEDTAVYYCNAGILSRWVRKYYYWGQGTQVTVSS | low polyreactivity
QVQLVESGGGLVQAGGSLRLSCAASGRTFGRYAMGWYRQAPGKERELVARIRTSGGRTYYADSVKGRFTISRDIAKNTVYLLMNSLNPEDTAVYYCGTSSQPWYYWSTQGDDFWGQGTQVSVSS | low polyreactivity
QVQLVESGGGLVQAGGSLRLSCAASGRTFGRYAMVWSRQAPGKERELVAAITRGGGSTYYADSVKGRFTISRDNAKYTVYLQMNSLKPEDTAVYYCAARNFRSPYGYDYWGQGTQVTVSS | high polyreactivity
QVQLVESGGGLVQAGGSLRLSCAASGRTFGRYPMGCYRQAPGKERELVAAIRYSGSSTYYADSVKGRFTISRDNAKNTVYLQMYSLKPEDTAVYYCAKRYYGKDYWGQGSQVTVSS | high polyreactivity
QVQLVESGGGLVQAGGSLRLSCAASGRTFGSNAMGWYRQAPGKERELVAAISRVGSTYYADSVNGRFTISRDNAMNTVYLQMNSLKPEDTAVYYCPYDYWGQGTQVTVSS | low polyreactivity
QVQLVESGGGLVQAGGSLRLSCAASGRTFGSNAMGWYRQAPGKERELVAAITSGGGTYYADSVKGRFTISRDNAKNTVYLQMNSLKPEDTAVYYCNKLGTSFRRDYGSWGQGTQVTVSS | low polyreactivity
QVQLVESGGGLVQAGGSLRLSCAASGRTFGSYAMAWYRQAPGKERELVAAITWSGTGTYYADSVKGRFTISRDNAKNTVYLQMKSLKPEVTAVYYCAARYASGRRGEYWGQGTQVTVSS | high polyreactivity
QVQLVESGGGLVQAGGSLRLSCAASGRTFGSYAMGWNRPATRLERELVAAISDGGSTNYADSVKGRFTISRDNAKITVYLQMNSLTPEDTAVYYCAAEIFFAVFRFYYSGQGTQVTVSS | low polyreactivity
QVQLVESGGGLVQAGGSLRLSCAASGRTFGSYAMGWYRQAPGKERELVAGISWSGGITYYADSVKGRFTISRDNAKNTVYLQMNSLKPEDTAVYYCAASPRRDENAGRVRLYYWGQGTQVTVSS | high polyreactivity

Sequence | polyreactivity (PSR sort gate)
QVQLVESGGGLVQAGGSLRLSCAASGRTFGTNALGWYRQAPGKERELVASIDLSADSTYYADSVKGRFTISRDNAKKTVYLQMNSLKPEDTAVYYCNKDGYPWPPNLDYWGQGTQVTVSS | low polyreactivity
QVQLVESGGGLVQAGGSLRLSCAASGRTFGTNTMGWYRQAPGKERELVAAIRRGGGTNYADSVKGRFTISRDNAKNTVYLQMNSLKPEDTAVYYCAAVRWNTGVGYYYWGQGTQVTVSS | high polyreactivity
QVQLVESGGGLVQAGGSLRLSCAASGRTFGVNAMGWYRQAPGKEREFVAAITWSGGSTYYADSVKGRFTISRDNAKNTVYLQMISLKPEDTAVYYCAAVQWRYDGSFTGYGYWGQGTQVTVSS | low polyreactivity
QVQLVESGGGLVQAGGSLRLSCAASGRTFGVNAMGWYRQAPGKERELVARIRVSGGRTYYADSVKGRFTISRDNAKNTVYLQMNSLKPEDTAVYYCNAGYTYNRVIWPYYYWGQGTQVTVSS | high polyreactivity
QVQLVESGGGLVQAGGSLRLSCAASGRTFGVNAMGWYRQAPGKERELVATIRRGGSTYYADSVKGRFTISRDNAKNTVYLQMNSLKPEDTAVYYCNASHVTWNRKYDYWGQGTQVNVSS | low polyreactivity
QVQLVESGGGLVQAGGSLRLSCAASGRTFGVYALGWYRQAPRKERELVAGIRWRGGSTYYADSVKGRFTISRDNAKNTVYLQMNSLKPEDTAVYYCAADVYLVKYDYWGQGTQVTVSS | low polyreactivity
QVQLVESGGGLVQAGGSLRLSCAASGRTFGVYAMGWYRQAPGKERELVATIRTTGSTNYADSVKGRFTISRDNAKYTVYLQMNSVKTEDTAVYYCAARLRQSKYYPYTTFTYDYWGQGTQVTVSS | high polyreactivity
QVQLVESGGGLVQAGGSLRLSCAASGRTFGVYAMGWYRQAPWKERELVAGIRWRGGSTYYADSVKGRFTISRDNAKNTVYLQMNSLKPEDTAVYYCAADVYLVKYDYWGQGTQVTVSS | low polyreactivity
QVQLVESGGGLVQAGGSLRLSCAASGRTFGWNAMGWYRQAPGKERELVASIRYSGGTTYYADSVKGRFTISRDNAKNTVYLQMKSLKPEDTAVYYCNSAYYNTGATRPYGYGYWGQGTQVTVSS | low polyreactivity
QVQLVESGGGLVQAGGSLRLSCAASGRTFGWNARGWYRQAPGKEKELVAAISWSGTNTYYADSVKGRFTISRDNAKNTVYLQMNSLKPEDTAVYYCAARDWTGSWNGYWSCEYNYWGQGTQVTGSS | low polyreactivity
QVQLVESGGGLVQAGGSLRLSCAASGRTFGWYAMGSYRQAPGKERELVAAITSGTSTYYADSVKGRFTISRDNAKYTVYLQMNSRKPEDTAVYYCAVDRGISVGYTRFDYWGQGTQVTVSS | low polyreactivity
QVQLVESGGGLVQAGGSLRLSCAASGRTFGWYAMGWYRQAPGKEREFVAVISRSGTNTYYADSVKGRFTISRDNAKNTVYLQMNSLKPEDTAVYYCATYWSLSQSRQGDYWGQGTQVTVSS | high polyreactivity
QVQLVESGGGLVQAGGSLRLSCAASGRTFGWYAMGWYRQAPGKERELVAAISTRGTRTYYADSVKGRFTISRDNAKNTVYLQMNSLKPEDTAVYYCNAKRRAVTTAHGIPEEDYWGQGTQVTVSS | high polyreactivity
QVQLVESGGGLVQAGGSLRLSCAASGRTFGWYTMGWYRPAPGKERELVAAISRSGTSTYYADSVKGRFTISRDNAKNTVYLQMNSLKQEDTAVYYCAQYVNPRGGNYWGQGTQVTVSS | high polyreactivity
QVQLVESGGGLVQAGGSLRLSCAASGRTFGYNAMGWYRKAPGKEREFVAAISWSGGRTYYADSVKGRFTISRDNAKNTVYLQMNSLKPEDTAVYYCAAGFGDGPGNGYYTRYSWDDDYWGQGTQVTVSS | low polyreactivity
QVQLVESGGGLVQAGGSLRLSCAASGRTFGYNAMGWYRQAPGKERELVAAITIGGSTNYADSVNGRFTISRDNAKNTVYLQMNSLKPEDTAVYYCAAYDTLLYWVEFYYWGQGTQVTVSS | low polyreactivity
QVQLVESGGGLVQAGGSLRLSCAASGRTFGYNAMGWYRQAPGKERELVASISYRGGSTYYADSVKGRFTISRDNAKNTVYLQMNSLKPEDTAVYYCNKYYVWREYYWGQGTQVTVSS | high polyreactivity
QVQLVESGGGLVQAGGSLRLSCAASGRTFGYNAMGWYRQAPGKERELVATITWNGGRTYYADSVKGRFTISRDNAKNTVYLQMNSLKPEDTAVYYCAKGYPIIGRHGHWGQGTQVTVSS | high polyreactivity
QVQLVESGGGLVQAGGSLRLSCAASGRTFGYNAMGWYRQAPGKERQLVAAINWSGASTYYADSVKGRFTISRDNAKNTVYLQMNSLKPEDTAVYYCAADYSYIYGFDYWGQGTQVTVSS | low polyreactivity
QVQLVESGGGLVQAGGSLRLSCAASGRTFGYNAMGWYRQAPGKESELVAVISRGSRTYYADSVKGRFTISRDNAKNTVYLQMNSLKPEDTAVYYCAADYEYSGYGYWGQGTQVTVSS | high polyreactivity
QVQLVESGGGLVQAGGSLRLSCAASGRTFGYNTMGWYRQAPGKERELVAVITQGVDITYYADSVKGRFTISRDNAKNTVYLQMNSLKPEDTAVYYCNTAGQDAEYDYWGQGTQVTVSS | low polyreactivity
